In publication PMC6118392, “VapC proteins from Mycobacterium tuberculosis share ribonuclease sequence specificity but differ in regulation and toxicity” (PLoS ONE, 2018):

T1: VapB29;VapC29 (UniProt P9WJ37+P9WF79)
T1 sequence 1: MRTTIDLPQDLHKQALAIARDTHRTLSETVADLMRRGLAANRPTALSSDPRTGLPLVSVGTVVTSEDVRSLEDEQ
T1 sequence 2: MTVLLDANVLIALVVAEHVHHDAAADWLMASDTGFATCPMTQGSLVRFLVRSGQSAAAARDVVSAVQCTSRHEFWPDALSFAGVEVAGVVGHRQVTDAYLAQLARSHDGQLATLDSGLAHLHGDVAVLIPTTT

T2: VapB1;VapC1 (UniProt P0CW29+P9WFC1)
T2 sequence 1: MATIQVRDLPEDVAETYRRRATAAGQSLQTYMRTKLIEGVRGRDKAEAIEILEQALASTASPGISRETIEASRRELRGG
T2 sequence 2: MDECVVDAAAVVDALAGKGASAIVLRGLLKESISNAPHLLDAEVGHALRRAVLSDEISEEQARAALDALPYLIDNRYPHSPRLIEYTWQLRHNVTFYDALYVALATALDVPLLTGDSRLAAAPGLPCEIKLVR

T3: VapB29;VapC29 (Mycobacterium tuberculosis …, UniProt P9WJ37;P9WF79 1-75;1-133, |)
T3 sequence 1: T1 sequence 1
T3 sequence 2: T1 sequence 2

B1: Oligo 5 (50 bp vapBC29 promoter, control) (dsDNA)
DNA 1: GGTGAGCGTCGGCGCGCGCATCACGATGCAGCGATGTTAGGATGAGGCGG
DNA 2: CCGCCTCATCCTAACATCGCTGCATCGTGATGCGCGCGCCGACGCTCACC

How the values were obtained:
Assay in all cases: EMSA
VapB29;VapC29 [1] = molecular target: T1, VapB29;VapC29
VapB1;VapC1 = molecular target: T2, VapB1;VapC1
VapB29;VapC29 [2] = molecular target: T3, VapB29;VapC29; settings: protein: recombinant;recombinant; tags: ;C-terminal His; label: 3' DIG-ddUTP; blunt

Row | Molecule | binding (VapB29;VapC29 [1]) | binding (VapB1;VapC1) | binding result (VapB29;VapC29 [2])
1 | CATGGGAATACGATACCAATGGCTTCCCACTCAGGTGCGGAAGTCGACTCACCGCCGTTACCACGACCCCGACGACCACACCGTCAGCTGCGGCGCGGCGTGGCGACTATTGGTCGCTAGTGTCGTGCTCCCGATTCGGGTCCTTTGTATCTGATGACGT (double strand) [vapBC27 promoter 160 bp] | no binding |  | 
2 | AGCGGAGTTCACCGGCTAAGAATGCCGGCTTATCCACCGGGCGTTTCGGCGGCATCGATGGCCTTCTCTAACCGGTCGAGCACCGCGCGCAGATCGGCCAG (double strand) [vapBC1 promoter 101 bp] |  | no binding | 
3 | GTGGATAAGCCGGCATTCTTAGCCGGTGAACTCCGCTATGGCTACCATTCAAGTTCGGGATTTGCCCGAAGATGTCGCCGAAACCTATCGACGGCGCGCCACCGCAGCGGGGCAGTCGCTGCAGACGTATATGCGCACCAAGCTCATCGA (double strand) [vapBC1 promoter 150 bp] | no binding | no binding | 
4 | B1 |  |  | binds
